Results taken from publication PMC9129042 (PLoS ONE, 2022).

Molecular target: T1, D614G S2P probe (SARS-CoV-2, WA-1 with D614G, UniProt A0A6H1PJZ3, D614G | K986P | V987P, biotin on the AVI tag (…))
T1 construct: also called single mutated D614G S2P
Test: BLI
Details: both partners purified

B1: A19-46.1 (antibody, V domains shown)
VH: QVQLVESGGGVVQPGRSLRLSCAASGFTLSSYGMHWVRQAPGKGLEWVAVISYDGSNKYYVDSVKGRFTISRDNSKNTLYLQMNSLRAEDTAVYYCARGWAYWELLPDYYYGMDVWGQGTTVTVSS
VL: QTVVTQEPSFSVSPGGTVTLTCGLSSGSVSTAYFPSWYQQTPGQAPRTLIYGTNTRSSGVPDRFSGSILGNKAALTITGAQADDESDYYCVLYMGRGIVVFGGGTKLTVL
binding result: binds
